According to PMC11481066 (2024):
Read-outs that look alike come from different tables or passages of the source.

Assays:
Assay in all cases: BLI
[1] = target: T1, SARS-CoV-2 spike protein receptor binding domain, wild-type (Wuhan type) (SARS-CoV-2, UniProt P0DTC2)
[2] = target: T1, SARS-CoV-2 spike protein receptor …; remark: listed apart in the source
[3] = target: T1, SARS-CoV-2 spike protein receptor …; remark: listed apart in the source
[4] = target: T1, SARS-CoV-2 spike protein receptor …; remark: listed apart in the source

Row | Binder | koff [1] [s⁻¹] | Kd [2] [nM] | koff [3] [s⁻¹] | Kd [4] [nM]
1 | H11-H4 L106F mutant nanobody (VHH) VHH: QVQLVESGGGLMQAGGSLRLSCAVSGRTFSTAAMGWFRQAPGKEREFVAAIRWSGGSAYYADSVKGRFTISRDKAKNTVYLQMNSLKYEDTAVYYCAQTHYVSYLFSDYATWPYDYWGQGTQVTVSS | 0.149 | 164 | – | –
2 | H11-H4 nanobody, wild type (VHH) VHH: QVQLVESGGGLMQAGGSLRLSCAVSGRTFSTAAMGWFRQAPGKEREFVAAIRWSGGSAYYADSVKGRFTISRDKAKNTVYLQMNSLKYEDTAVYYCAQTHYVSYLLSDYATWPYDYWGQGTQVTVSS | 0.0406 | 63.6 | – | –
3 | H11-H4 L106W mutant nanobody (VHH) VHH: QVQLVESGGGLMQAGGSLRLSCAVSGRTFSTAAMGWFRQAPGKEREFVAAIRWSGGSAYYADSVKGRFTISRDKAKNTVYLQMNSLKYEDTAVYYCAQTHYVSYLWSDYATWPYDYWGQGTQVTVSS | 0.739 | 132 | – | –
4 | H11-H4 V102Y mutant nanobody (VHH) VHH: QVQLVESGGGLMQAGGSLRLSCAVSGRTFSTAAMGWFRQAPGKEREFVAAIRWSGGSAYYADSVKGRFTISRDKAKNTVYLQMNSLKYEDTAVYYCAQTHYYSYLLSDYATWPYDYWGQGTQVTVSS | 0.543 | 180 | – | –
5 | H11-H4 H100Y mutant nanobody (VHH) VHH: QVQLVESGGGLMQAGGSLRLSCAVSGRTFSTAAMGWFRQAPGKEREFVAAIRWSGGSAYYADSVKGRFTISRDKAKNTVYLQMNSLKYEDTAVYYCAQTYYVSYLLSDYATWPYDYWGQGTQVTVSS | 0.145 | 238 | – | –
6 | ab8 nanobody, wild type (VHH) VHH: EVQLVESGGGLVQPGGSLRLSCAASGFTFDDYAMSWVRQAPGKGLEWIGRMYNNGRTSYNPSLKSLVTISRDNSKNTLYLQMNSLRAEDTATYYCARDNLGYRPSENLYGMDVWGQGTTVTVSS | – | – | 0.0291 | 51.4
7 | ab8 E127W mutant nanobody (VHH) VHH: EVQLVESGGGLVQPGGSLRLSCAASGFTFDDYAMSWVRQAPGKGLEWIGRMYNNGRTSYNPSLKSLVTISRDNSKNTLYLQMNSLRAEDTATYYCARDNLGYRPSWNLYGMDVWGQGTTVTVSS | – | – | 0.0148 | 2.18
